# Measured values: article PMC8204306 (ACS Infectious Diseases, 2021)
# B1: ChsB1 (Mycobacterium tuberculosis H37Rv) (protein)
# chain: MKLTESNRSPRTTNTTDLSGKVAVVTGAAAGLGRAEALGLARLGATVVVNDVASALDASDVVDEIGAAAADAGAKAVAVAGDISQRATADELLASAVGLGGLDIVVNNAGITRDRMLFNMSDEEWDAVIAVHLRGHFLLTRNAAAYWRDKAKDAEGGSVFGRLVNTSSEAGLVGPVGQANYAAAKAGITALTLSAARALGRYGVCANVICPRARTAMTADVFGAAPDVEAGQIDPLSPQHVVSLVQFLASPAAAEVNGQVFIVYGPQVTLVSPPHMERRFSADGTSWDPTELTATLRDYFAGRDPEQSFSATDLMRQ
# B2: ChsH3 (Mycobacterium tuberculosis H37Rv) (protein)
# chain: MPIDLDVALGAQLPPVEFSWTSTDVQLYQLGLGAGSDPMNPRELSYLADDTPQVLPTFGNVAATFHLTTPPTVQFPGIDIELSKVLHASERVEVPAPLPPSGSARAVTRFTDIWDKGKAAVICSETTATTPDGLLLWTQKRSIYARGEGGFGGKRGPSGSDVAPERAPDLQVAMPILPQQALLYRLCGDRNPLHSDPEFAAAAGFPRPILHGLCTYGMTCKAIVDALLDSDATAVAGYGARFAGVAYPGETLTVNVWKDGRRLVASVVAPTRDNAVVLSGVELVPA
# Legend:
# ChsB1 = ChsB1 (Mycobacterium tuberculosis, UniProt O53547)
# purified protein [1] = substrate: CCCCC[C@@H](O)CC(=O)SCCNC(=O)CCNC(=O)[C@H](O)C(C)(C)COP(=O)(O)OP(=O)(O)OC[C@H]1O[C@@H](n2cnc3c(N)ncnc32)[C@H](O)[C@@H]1OP(=O)(O)O; test: purified protein; conditions: pH 8.5; 25.0 °C
# purified protein [2] = substrate: C[C@@H]([C@H]1CC[C@H]2[C@@H]3CCC4=CC(=O)CC[C@]4(C)[C@H]3CC[C@]12C)[C@@H](O)CC(=O)SCCNC(=O)CCNC(=O)[C@H](O)C(C)(C)COP(=O)(O)OP(=O)(O)OC[C@H]1O[C@@H](n2cnc3c(N)ncnc32)[C@H](O)[C@@H]1OP(=O)(O)O; test: purified protein; conditions: pH 8.5; 25.0 °C
# purified protein [3] = substrate: C[C@H](C(=O)CC(=O)SCCNC(=O)CCNC(=O)[C@H](O)C(C)(C)COP(=O)(O)OP(=O)(O)OC[C@H]1O[C@@H](n2cnc3c(N)ncnc32)[C@H](O)[C@@H]1OP(=O)(O)O)[C@H]1CC[C@H]2[C@@H]3CCC4=CC(=O)CC[C@]4(C)[C@H]3CC[C@]12C; test: purified protein; conditions: pH 8.5; 25.0 °C
# purified protein [4] = substrate: C[C@]12CC[C@H]3[C@@H](CCC4=CC(=O)CC[C@@]43C)[C@@H]1CC[C@@H]2O; test: purified protein; conditions: pH 8.5; 25.0 °C
# purified protein [5] = substrate: NC(=O)C1=CN([C@@H]2O[C@H](COP(=O)(O)OP(=O)(O)OC[C@H]3O[C@@H](n4cnc5c(N)ncnc54)[C@H](O)[C@@H]3O)[C@@H](O)[C@H]2O)C=CC1; test: purified protein; conditions: pH 8.5; 25.0 °C; varied: cofactor
# purified protein [6] = substrate: NC(=O)c1ccc[n+]([C@@H]2O[C@H](COP(=O)(O)OP(=O)(O)OC[C@H]3O[C@@H](n4cnc5c(N)ncnc54)[C@H](O)[C@@H]3O)[C@@H](O)[C@H]2O)c1; test: purified protein; conditions: pH 8.5; 25.0 °C; varied: cofactor
# purified protein [7] = substrate: CC(=CCC[C@@H](C)[C@H]1CC[C@H]2[C@@H]3CCC4=CC(=O)CC[C@]4(C)[C@H]3CC[C@]12C)C(=O)SCCNC(=O)CCNC(=O)[C@H](O)C(C)(C)COP(=O)(O)OP(=O)(O)OC[C@H]1O[C@@H](n2cnc3c(N)ncnc32)[C@H](O)[C@@H]1OP(=O)(O)O; test: purified protein; conditions: pH 7.4; 25.0 °C
# purified protein [8] = substrate: CCCCC/C=C/C(=O)SCCNC(=O)CCNC(=O)[C@H](O)C(C)(C)COP(=O)(O)OP(=O)(O)OC[C@H]1O[C@@H](n2cnc3c(N)ncnc32)[C@H](O)[C@@H]1OP(=O)(O)O; test: purified protein; conditions: pH 7.4; 25.0 °C
# purified protein [9] = substrate: C[C@H](/C=C/C(=O)SCCNC(=O)CCNC(=O)[C@H](O)C(C)(C)COP(=O)(O)OP(=O)(O)OC[C@H]1O[C@@H](n2cnc3c(N)ncnc32)[C@H](O)[C@@H]1OP(=O)(O)O)[C@H]1CC[C@H]2[C@@H]3CCC4=CC(=O)CC[C@]4(C)[C@H]3CC[C@]12C; test: purified protein; conditions: pH 7.4; 25.0 °C
molecule,measurement,setting,value
NC(=O)c1ccc[n+]([C@@H]2O[C@H](COP(=O)(O)OP(=O)(O)OC[C@H]3O[C@@H](n4cnc5c(N)ncnc54)[C@H](O)[C@@H]3O)[C@@H](O)[C@H]2O)c1 [NAD^+],"X-ray co-crystal structure, 2.21 Å",ChsB1,Co-crystallization of NAD^+ and ChsB1 yielded cubic crystals by sitting drop vapor diffusion
B1,Km,purified protein [1],169 ± 21 µM
same,kcat/Km,purified protein [1],15000 M⁻¹ s⁻¹
same,Km,purified protein [2],5.3 ± 1 µM
same,kcat/Km,purified protein [2],1.7e+06 M⁻¹ s⁻¹
same,Km,purified protein [3],25 ± 5 µM
same,kcat/Km,purified protein [3],64000 M⁻¹ s⁻¹
same,Km,purified protein [4],369 ± 75 µM
same,kcat/Km,purified protein [4],810 M⁻¹ s⁻¹
same,Km,purified protein [5],40 ± 6 µM
same,Km,purified protein [6],70 ± 10 µM
B2,Km,purified protein [7],12 ± 6 µM
same,kcat/Km,purified protein [7],120000 M⁻¹ s⁻¹
same,Km,purified protein [8],112 ± 12 µM
same,kcat/Km,purified protein [8],1.5e+06 M⁻¹ s⁻¹
same,Km,purified protein [9],55 ± 5 µM
same,kcat/Km,purified protein [9],2e+06 M⁻¹ s⁻¹
